These results are taken from PMC8162121 (Nature cell biology, 2021).

By Kd is commonly meant the concentration at which binding is half-saturated.

For experiment [1], the target named is GST-tagged EZH2, purified recombinant (human, UniProt Q15910 1-746). As to the kind of experiment: AlphaScreen or HTRF. (In general: In Alpha technology, singlet oxygen from a donor bead excites a nearby acceptor bead.)
For experiment [2], the target named is Flag-tagged EZH2, purified recombinant (human, UniProt Q15910 1-746). As to the kind of experiment: AlphaScreen or HTRF.
Sequence of Flag-tagged EZH2, purified recombinant (Q15910 whole entry): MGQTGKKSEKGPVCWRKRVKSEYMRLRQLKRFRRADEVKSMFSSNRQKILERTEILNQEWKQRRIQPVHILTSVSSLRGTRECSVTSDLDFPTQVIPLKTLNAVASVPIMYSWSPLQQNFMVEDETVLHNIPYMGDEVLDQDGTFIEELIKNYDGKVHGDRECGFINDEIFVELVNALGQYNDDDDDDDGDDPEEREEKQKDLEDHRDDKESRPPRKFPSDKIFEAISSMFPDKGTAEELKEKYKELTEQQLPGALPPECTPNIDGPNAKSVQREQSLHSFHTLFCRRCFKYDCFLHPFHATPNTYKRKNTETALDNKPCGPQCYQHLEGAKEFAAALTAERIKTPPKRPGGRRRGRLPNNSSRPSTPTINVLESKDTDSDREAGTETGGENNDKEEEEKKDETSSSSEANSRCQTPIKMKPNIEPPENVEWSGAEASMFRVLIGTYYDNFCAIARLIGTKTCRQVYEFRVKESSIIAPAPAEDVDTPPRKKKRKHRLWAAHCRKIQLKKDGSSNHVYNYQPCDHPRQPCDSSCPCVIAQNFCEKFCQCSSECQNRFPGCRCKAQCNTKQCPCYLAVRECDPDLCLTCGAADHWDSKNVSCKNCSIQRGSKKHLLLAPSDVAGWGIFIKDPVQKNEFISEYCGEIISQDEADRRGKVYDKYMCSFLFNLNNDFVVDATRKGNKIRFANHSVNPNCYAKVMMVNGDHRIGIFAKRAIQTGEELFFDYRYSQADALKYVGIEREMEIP

Sequence of GST-tagged EZH2, purified recombinant (Q15910 whole entry): as above

B1: unlabeled FBL, purified recombinant (natural protein, human, UniProt P22087 1-321, looked up)
chain: MKPGFSPRGGGFGGRGGFGDRGGRGGRGGFGGGRGRGGGFRGRGRGGGGGGGGGGGGGRGGGGFHSGGNRGRGRGGKRGNQSGKNVMVEPHRHEGVFICRGKEDALVTKNLVPGESVYGEKRVSISEGDDKIEYRAWNPFRSKLAAAILGGVDQIHIKPGAKVLYLGAASGTTVSHVSDIVGPDGLVYAVEFSHRSGRDLINLAKKRTNIIPVIEDARHPHKYRMLIAMVDVIFADVAQPDQTRIVALNAHTFLRNGGHFVISIKANCIDSTASAEAVFASEVKKMQQENMKPQEQLTLEPYERDHAVVVGVYRPPPKVKN
In the case of B1, in experiment [1], the Kd was 842 nM.

B2: unlabeled NOP56, purified recombinant (natural protein, human, UniProt O00567 1-594, looked up)
chain: MVLLHVLFEHAVGYALLALKEVEEISLLQPQVEESVLNLGKFHSIVRLVAFCPFASSQVALENANAVSEGVVHEDLRLLLETHLPSKKKKVLLGVGDPKIGAAIQEELGYNCQTGGVIAEILRGVRLHFHNLVKGLTDLSACKAQLGLGHSYSRAKVKFNVNRVDNMIIQSISLLDQLDKDINTFSMRVREWYGYHFPELVKIINDNATYCRLAQFIGNRRELNEDKLEKLEELTMDGAKAKAILDASRSSMGMDISAIDLINIESFSSRVVSLSEYRQSLHTYLRSKMSQVAPSLSALIGEAVGARLIAHAGSLTNLAKYPASTVQILGAEKALFRALKTRGNTPKYGLIFHSTFIGRAAAKNKGRISRYLANKCSIASRIDCFSEVPTSVFGEKLREQVEERLSFYETGEIPRKNLDVMKEAMVQAEEAAAEITRKLEKQEKKRLKKEKKRLAALALASSENSSSTPEECEEMSEKPKKKKKQKPQEVPQENGMEDPSISFSKPKKKKSFSKEELMSSDLEETAGSTSIPKRKKSTPKEETVNDPEEAGHRSGSKKKRKFSKEEPVSSGPEEAVGKSSSKKKKKFHKASQED
With B2, the Kd in experiment [2] worked out at 43.6 nM.
